B1: Phage-699 (peptide)
peptide: YCDGHSQEYMSKCL
B2: Phage-700 (peptide)
peptide: YCHGHLPQYMSKCM
B3: Phage-701 (peptide)
peptide: YCAGHLDIYLAKCL
B4: Phage-702 (peptide)
peptide: YCAGHAPEYISKCL
B5: Phage-703 (peptide)
peptide: YCDGHSWEYLGKCL
B6: Phage-705 (peptide)
peptide: YCEGHAAEYLWKCL
B7: Phage-706 (peptide)
peptide: YCDGHRPEYMSKCL
B8: Phage-707 (peptide)
peptide: YCEGHMPEYLAKCL
B9: Phage-708 (peptide)
peptide: YCEGHAGVYMAKCL
B10: Phage-710 (peptide)
peptide: YCAGHSSEYIGKCL
B11: Phage-713 (peptide)
peptide: YCEGHAEQYMEKCL
B12: Phage-714 (peptide)
peptide: YCEGHLKEYMQKCL
B13: Phage-716 (peptide)
peptide: YCEGHRAEYMSKCL
B14: Phage-717 (peptide)
peptide: YCDGHSWIYMVKCL
B15: Phage-718 (peptide)
peptide: YCDGHLSVYMSKCL
B16: Phage-719 (peptide)
peptide: YCEGHLPQYMSKCL
B17: Phage-733 (peptide)
peptide: YCDGHAMEYMEKCL
B18: Phage-734 (peptide)
peptide: YCEGHLWEYLAKCL
B19: Phage-735 (peptide)
peptide: YCEGHMGEYMLKCL
B20: Phage-737 (peptide)
peptide: YCAGHAEEYMLKCL
B21: Phage-739 (peptide)
peptide: YCVGHLPEYMLECM
B22: Phage-740 (peptide)
peptide: YCDGHSFHYMAKCL
B23: Phage-741 (peptide)
peptide: YCEGHSEMYMSKCL
B24: Phage-742 (peptide)
peptide: YCDGHANAYIWKCL
B25: Phage-743 (peptide)
peptide: YCEGHIPMYMLKCM
B26: Phage-744 (peptide)
peptide: YCEGHAQEYMAKCL
B27: Phage-745 (peptide)
peptide: YCDGHAKVYIWKCL
B28: Phage-746 (peptide)
peptide: YCEGHIPAYMAKCL
B29: Phage-747 (peptide)
peptide: YCDGHAPIYMQKCL
B30: Phage-748 (peptide)
peptide: YCEGHLWEYMKKCL
B31: Phage-13 (peptide)
peptide: YCAGHAWQYINKCL
B32: Phage-1 (peptide)
peptide: YWSCFQIPFTCFYF
B33: Phage-2 (peptide)
peptide: WECLKYTEANACTY
B34: Phage-3 (peptide)
peptide: FMCLPQNPHPLCFK
B35: Phage-4 (peptide)
peptide: PDCQTILFKPWCVR
B36: Phage-16 (peptide)
peptide: PDCHTILFKPWCVR
B37: Phage-5 (peptide)
peptide: ACDTYFAGMINECF
B38: Phage-6 (peptide)
peptide: GCQYPWAFDAMSCP
B39: Phage-7 (peptide)
peptide: WCWDYKLWVPTQCP
B40: Phage-8 (peptide)
peptide: WCWDYREWVPMTCP
B41: Phage-14 (peptide)
peptide: WCWYYREWVPMTCP

Assays:
[1] = target: T1, Anti-CD28 Fab (SEQ ID NOs: 202, 203); experiment: phage ELISA, Fab on plate;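 note: crude clonal phage supernatants added to wells pretreated with blocking buffer with or without CD28 antigen, then bound phage read out via HRP-linked anti-M13 antibody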
T1 construct: biotinylated and captured on neutravidin coated plates in the phage ELISA
T1 sequence (VH, as listed by the source, chain 1 of 2): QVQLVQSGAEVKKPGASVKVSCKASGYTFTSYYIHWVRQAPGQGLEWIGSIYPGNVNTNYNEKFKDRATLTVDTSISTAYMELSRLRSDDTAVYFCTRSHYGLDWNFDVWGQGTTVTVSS
T1 sequence (VL, as listed by the source, chain 2 of 2): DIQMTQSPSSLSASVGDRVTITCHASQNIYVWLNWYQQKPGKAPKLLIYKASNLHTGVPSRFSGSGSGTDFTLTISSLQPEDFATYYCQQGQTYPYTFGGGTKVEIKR
Protocol: (§1) After panning, phage infected bacteria were plated out and colonies picked into 96 well blocks. Clonal phage was then amplified and separated from bacterial cells via centrifugation.
(§2) Clonal phage were harvested as crude supernatants and screened via standard ELISAs. […] Prior to the addition of clonal phage, wells were incubated with blocking buffer and CD28 antigen or blocking buffer alone. Without washing or aspirating, clonal phage supernatants were then added to the wells and incubated for a short time. Wells were then washed followed by detection of bound phage using a horse radish conjugated anti-M13 antibody. Clonal phage of interest were then sent for sequence analysis.

[2] = target: T1, Anti-CD28 Fab (SEQ ID NOs: 202, 203); experiment: phage ELISA, Fab on plate, CD28 antigen as competitor
Protocol: as §1, §2

[3] = target: Anti-CD28 Fab (SEQ ID NOs: 202, 203); experiment: phage binding ELISA on captured Fab;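 note: clonal phage supernatants added briefly to wells pre-incubated with CD28 antigen or with blocking buffer only, then washed, bound phage read by ELISA using HRP-coupled anti-M13 antibody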
Target sequence in this assay (VH, as listed by the source, chain 1 of 2): as the sequence (VH, as listed by the source, chain 1 of 2) above
Target sequence in this assay (VL, as listed by the source, chain 2 of 2): as the sequence (VL, as listed by the source, chain 2 of 2) above
Protocol: Clonal phage were harvested as crude supernatants and screened via standard ELISAs. […] Prior to the addition of clonal phage, wells were incubated with blocking buffer and CD28 antigen or blocking buffer alone. Without washing or aspirating, clonal phage supernatants were then added to the wells and incubated for a short time. Wells were then washed followed by detection of bound phage using a horse radish conjugated anti-M13 antibody.

| Binder | Anti-CD28 Fab (SEQ ID NOs: 202, 203) signal [1] | Anti-CD28 Fab signal in the presence of CD28 [2] | Anti-CD28 Fab signal [3] |
| --- | --- | --- | --- |
| B1 | 1.21 | 0.06 |  |
| B2 | 1.21 | 0.06 |  |
| B3 | 1.21 | 0.07 |  |
| B4 | 1.21 | 0.07 |  |
| B5 | 1.2 | 0.05 |  |
| B6 | 1.18 | 0.09 |  |
| B7 | 1.18 | 0.07 |  |
| B8 | 1.18 | 0.07 |  |
| B9 | 1.17 | 0.05 |  |
| B10 | 1.17 | 0.06 |  |
| B11 | 1.17 | 0.08 |  |
| B12 | 1.17 | 0.07 |  |
| B13 | 1.16 | 0.09 |  |
| B14 | 1.16 | 0.06 |  |
| B15 | 1.15 | 0.07 |  |
| B16 | 1.15 | 0.09 |  |
| B17 | 1.11 | 0.08 |  |
| B18 | 1.1 | 0.05 |  |
| B19 | 1.1 | 0.06 |  |
| B20 | 1.09 | 0.07 |  |
| B21 | 1.08 | 0.07 |  |

| Binder | Anti-CD28 Fab (SEQ ID NOs: 202, 203) signal [1] | Anti-CD28 Fab signal in the presence of CD28 [2] | Anti-CD28 Fab signal [3] |
| --- | --- | --- | --- |
| B22 | 1.08 | 0.06 |  |
| B23 | 1.07 | 0.09 |  |
| B24 | 1.07 | 0.09 |  |
| B25 | 1.06 | 0.09 |  |
| B26 | 1.06 | 0.08 |  |
| B27 | 1.06 | 0.08 |  |
| B28 | 1.06 | 0.08 |  |
| B29 | 1.06 | 0.06 |  |
| B30 | 1.06 | 0.07 |  |
| B31 |  |  | 0.64 |
| B32 |  |  | 1.44 |
| B33 |  |  | 1.55 |
| B34 |  |  | 0.84 |
| B35 |  |  | 2.09 |
| B36 |  |  | 1 |
| B37 |  |  | 0.92 |
| B38 |  |  | 2.38 |
| B39 |  |  | 2.27 |
| B40 |  |  | 2.3 |
| B41 |  |  | 1.85 |

Source: US20260274955A1 (JANUX THERAPEUTICS, published 2026)
